Results from the nanobody polyreactivity screen of Harvey et al. (2022).

Assay: yeast display, Sf9 membrane polyspecificity reagent, FACS + sequencing; frameworks hold sequencing errors
Outline: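 Genes from sorted yeast were amplified by colony PCR, read by MiSeq 2 × 250 sequencing and filtered on CDR length. These cells carried a synthetic nanobody library in Saccharomyces cerevisiae BJ5465 and were sorted by FACS into low and high (top ~1%) gates on anti-HA and streptavidin fluorescence. Polyreactivity is labelled according to the gate of origin.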

QVQLEESGGGLVQAGGSLRLSCAASGTFVTYMGWYRQAPGKERELVAAIRNGGSTNYADSVKGRFTISRDNAKNTVYLQMNSLKPEDTAVYYCAARVTYSRGYRGGSRTKYDYWGQGTQVTVSS
polyreactivity (PSR sort gate): low polyreactivity

QVQLEESGGGLVQAGGSLRLSCAASGYIFDYNAMGWYRQAPGKERELVAVISRGGRTYYADSVKGRFTISRDNAKNTVYLQMNILKPEDTAVYYCAADRQSYPYDYWGQGTQVTVSS
polyreactivity (PSR sort gate): high polyreactivity

QVQLEESGGGLVQAGGSLRLSCAASGYTFATYAMGWSRQAPGKERELVAAISQGGDRTNYADSVKGRFTISRDNAKITVYLQMNSLKPEDTSVYYCAVRYASRQSRFYYWGQGTQVTVSS
polyreactivity (PSR sort gate): high polyreactivity

QVQLEESGGGLVQAGGSLRLSCAASRRIFGSNAMGWYRQAPAKERELVAVITSGGRTYYADSVKGRFTISRDNAKNTVYLQMNSLKPGDTSVYYCNAYYKAAYDYWGQGTQVTVSS
polyreactivity (PSR sort gate): high polyreactivity

QVQLEESGGGLVQAGGSLRLSCAGSGRIFAYYPMGWYRQAPGKERELVAAISRSGVSTYYADSVKGRFTISRDNAKNTVYLQMNSLKPEDTAVYYCAATYWRRGGYRMEYWGQGTQVTVSS
polyreactivity (PSR sort gate): low polyreactivity

QVQLEESGGGLVQAGGSLRLSCAPSGYNYRKNVIGWYRQAPGKERELVAAISARGGSTYYADSVKGRFTISRDNAKNTVYLQMYSLKAEVTAVYFCNTDGYLYPYDSWGLGTQVTVSS
polyreactivity (PSR sort gate): high polyreactivity

QVQLEESGGGLVQAGGSLRLSCASSGSTFPYNAMGWYRQAPGKERELVAANTSGASTNYADSVKGRFTISRENAKNTVYLQMNRLKPEDTAVYYCAAQSFGKRIWSPRYQLNYWGQGTQVTVSS
polyreactivity (PSR sort gate): low polyreactivity

QVQLEESGGGLVQAGGSLRLSCDASGRIFGGYAMGWYRQAPGKERELVAAISASGGRTYYADSVKGRFTISRDNAKNTVYLQMNSLKPEDTAVYYCAASFRRTSLRWHGEYWGQGTQVTVSS
polyreactivity (PSR sort gate): high polyreactivity

QVQLEESGGGLVQAGGSLRLSCPASGITFYRYVMGWNRQAPGKERELDAAINWSTGTTNYADSVKGRFTISRDNAKNTVYLQMNSLKPEDTAVYYCNARYRLRFIYSLRYDYWGQGTQVTVSS
polyreactivity (PSR sort gate): high polyreactivity

QVQLEESGGGLVQAGGSLRLSCPASGSTFIVNVMGWYRQAPGKERELVAAINSGGSTDYADSVKGRFTISRDNAKNTVYLQMNSLKPEDTAVYYCNAYHIVIYDYWGQGTQVTVSS
polyreactivity (PSR sort gate): low polyreactivity

QVQLEESGGGLVQAGGSLRLSCSAYGFTFSRYDMGWYRQAPGKERELVAAISWSGGSTYYADSVKGRFTISRDNAKNSVYLQMNSLKPEDTAVYYCAKPGWSVTGESWGQGTQVTVSA
polyreactivity (PSR sort gate): high polyreactivity

QVQLEESGGGLVQAGGSLRLSFAASGFTFVRNTMGWDRQAPGKERELVAAISRSGGSTYYADSVKGRFTISRDKAKNTVYLQMNSLKPEDTAVYYCNAYRYVHYDWGQGTQVTVSS
polyreactivity (PSR sort gate): high polyreactivity

QVQLEESGGGLVQAGGSLRLSSAASGFTFAFYAMGWYRQAPGKERELVAAISRRGGSTTYADSVKGRFTISRDNAKNTVYLQMNSLKPEDTAVYYCNAVSTRNPGPDYYYWGQGTQVNVSS
polyreactivity (PSR sort gate): high polyreactivity

QVQLEESGGGLVQAGGSLRLSYAASGSIYSYYAMGWYRQAPGKERELVAAISRSGTSTYYADSVKGRFTISRDNAKNTVYLQMNSLKPEDTAVYYFGYYYGGDYWGQGTQVTVSS
polyreactivity (PSR sort gate): high polyreactivity

QVQLEESGGGLVQAGGSLRLTCAASGLTSRNYAMGWYRHAPRKARELVAAISKSGSRTYYADSVKGRFTISRDNAKNTVYLQMNSLKPEDTAVYYCATDYLDGTSYDYWGQGTQVTVSS
polyreactivity (PSR sort gate): high polyreactivity

QVQLEESGGGLVQAGGSLRLTCAASGRIFTPYAMGWYRQAPGKQTELVADIRDGSTYYADSVKGRFTISRDNAKNTVYLQMNSLKPEDTAVYYSRYYIWVWWSGAYDYWGQGTQVTVSS
polyreactivity (PSR sort gate): low polyreactivity

QVQLEESGGGLVQAGGSLRLTCAASGRNFTYYAMGWSIQAPGNEREIVAAISSSGGSTSYADSVKGRFTISRDNAKNTVYLQMNSLKPEDTAVYYCAAVTRDYGSRSGLDYWGQGTQVTVSS
polyreactivity (PSR sort gate): high polyreactivity

QVQLEESGGGLVQAGGSLSLSCAASGSTFDNYAMGWYRKAPGKERELVADITWSGGSTYYADSVKGRFTISRDNAQNSVYLQMNSLKAEDTAVYYCNTAGYYTKYDYWGQGTQVTVSS
polyreactivity (PSR sort gate): low polyreactivity

QVQLEESGGGLVQAGVSLRLSCAASGSTFSLYAMGWYRPAPGKERELVAAISSGGRTNYADSVKGRFTISRDNAKKTVYLQMNSLKPEDTAVYYCAARIQWPTWSLYYYWGQGTQVTVSS
polyreactivity (PSR sort gate): high polyreactivity

QVQLEESGGGLVQEGGSLRLSCADSGFTLWLNAMGWYRQAPGKERELVAAITTSDDGTYYADSVKGRFTISRDNAKNSVYLQMNSMKPEDTAVYYCAADYYSVLYDYWVQGTQVTVSS
polyreactivity (PSR sort gate): low polyreactivity

QVQLEESGGGLVQGGGSLRLSCAASGSNFQDNAMGWYRQAPGKERELVAAITGRDASTYYADSVKGRFTISRDNAKNTVYLQLNCLKPEDTAVDYCYWGQGTQVTVSS
polyreactivity (PSR sort gate): low polyreactivity

QVQLEESGGRLVQAGGSLRLSCAASGRTFGPYGMGWYRQAPGKESELDAAINGNGDSTYYADSVKGRFTISRDNAKNTVYLQMNSLKPEDTAVYYCASEGWPDYTSRLYDYWGQGTQVTVSS
polyreactivity (PSR sort gate): low polyreactivity

QVQLEESGGRLVQAGGSLRLSCAASGSIFALYAMGWYRQAPGKERELVAAIDWSDGGTYYADSVKGRFTISRDNAKNTLYLQMNSLKPEDTAVYYCNRVYSTSRITQYEFDYWGQGTQVTVSS
polyreactivity (PSR sort gate): low polyreactivity

QVQLEESGGRLVQEGGSLRLSCAASGSTFITNAMGWYRQAPGKEWELVAAITYSTGGTYYEDSVKGRFTISRDNAKNTVYLQMYSLKPEDTAVYYCAALLYFFLYDYWGQGTQVTVSS
polyreactivity (PSR sort gate): low polyreactivity

QVQLEESGRGLVQAGGSLRLSCAASGFTFSLYAMGWYRQAPGKERELVAAISSRSGSTFYADSVKGRFTISRDNAKNTVYLQMNSLKPEDTAVYYCAARRDWLGGYWGQGTQVTVSS
polyreactivity (PSR sort gate): high polyreactivity

QVQLEESGRGLVQAGGSLRLSCAASGRTFLQYAMGWYRQAPRKERELVAANTTSGGDTYYADSVKGRFTISRDNAKNTVYLQMNSLKPEDTAVYYCNADFRVYIPHVPYFVDFDYWGQGTQVTVSS
polyreactivity (PSR sort gate): low polyreactivity

QVQLEESGVCLVQAGGSLRLSCAASGYIFISYARGWYREAPGKEREFVAAITGDGGSTYADSEKGRFTISRDNAKNTVYLLMNSLKPEDTAVYYCAVDGYGGEADYEFDHWGQGTQVNVSS
polyreactivity (PSR sort gate): low polyreactivity

QVQLEESGVGLVQAGGSLRLSCAASGFTFYYNAMGWYRQAPGKERELVAGITWSGGSTYYADSVKGRFTISRDNAKNTVYLQMNSLKPEDTAVYYFAKDHQDSDYDYWGQGTQVTVSS
polyreactivity (PSR sort gate): high polyreactivity

QVQLEESGVGLVQAGGSLRLSCPASGRIIYRNAIVWYSQAPGKERELVAAITGSGGITYYADSVKGRFTISRDNAKNTVYLLMNSLKPEVTAVYYCAARAKFLSVPTYDNWGQGTQVTVSS
polyreactivity (PSR sort gate): high polyreactivity

QVQLEESRGGLVQAGGSLRLSCAASGYTLYEYAMGWYRQAPGKERELDAAITRSGGSTYYADSVKGRFTISRDNAKNTVYLQMNSLKPEDTAVFYCNADIYSRHTVGGYYYWGQGTQVTVSS
polyreactivity (PSR sort gate): high polyreactivity

QVQLEESVGGLVQAGGSLRLSCAASGFTFHRYAMGWYTQAPGKERELVAGITRRSGSTFYADSVQGRFTISRDNAKNTVFLQMNSLKPEDTAVYYCAATVPGLHWIYDYWGQGTQVTVSS
polyreactivity (PSR sort gate): high polyreactivity

QVQLEESVGGLVQAGGSLRLSCAASGRIFTIYAMVSYRQAPGKERELVAAISDRGTRTYYADSVKGRFTISRDNAKNTVYLQMNSLKPDDTAVYYCATDALYTYGYDYWGQGTQVTVSS
polyreactivity (PSR sort gate): low polyreactivity
